# According to patent US20030203451A1 (Genentech, published 2003):
# T1: IL-17RH1 (PRO5801) expressed on transfected 293 cells (human, UniProt Q9NRM6 18-502)
# T1 construct: also called IL-17RH1 expressing cells
# T1 sequence: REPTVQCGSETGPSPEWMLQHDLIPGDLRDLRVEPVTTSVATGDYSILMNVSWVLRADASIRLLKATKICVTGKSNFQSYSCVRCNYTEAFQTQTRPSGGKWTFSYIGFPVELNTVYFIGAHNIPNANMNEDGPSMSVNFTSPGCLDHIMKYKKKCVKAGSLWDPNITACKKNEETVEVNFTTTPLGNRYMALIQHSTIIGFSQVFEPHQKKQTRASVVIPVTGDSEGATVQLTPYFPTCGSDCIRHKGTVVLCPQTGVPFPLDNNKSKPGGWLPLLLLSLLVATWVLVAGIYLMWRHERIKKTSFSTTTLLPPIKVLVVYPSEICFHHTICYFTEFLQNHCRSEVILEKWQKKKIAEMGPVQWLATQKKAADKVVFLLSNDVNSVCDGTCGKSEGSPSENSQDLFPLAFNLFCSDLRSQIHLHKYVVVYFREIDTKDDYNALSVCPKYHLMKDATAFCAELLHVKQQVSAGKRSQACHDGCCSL
# T2: IL-17RH1 (PRO5801) extracellular domain (residues 1-275), baculovirus, Examples 33/34 (human) (UniProt Q9NRM6)
# T2 sequence: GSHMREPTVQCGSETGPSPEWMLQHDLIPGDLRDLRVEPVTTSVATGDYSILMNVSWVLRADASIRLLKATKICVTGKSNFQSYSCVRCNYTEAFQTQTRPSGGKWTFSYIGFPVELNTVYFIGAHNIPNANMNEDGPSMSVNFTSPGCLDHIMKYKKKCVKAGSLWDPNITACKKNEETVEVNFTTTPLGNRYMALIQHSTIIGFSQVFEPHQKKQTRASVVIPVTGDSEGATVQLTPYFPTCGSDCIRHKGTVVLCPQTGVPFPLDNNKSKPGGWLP
# B1: recombinant IL-17F (baculovirus, Examples 33/34) (ligand)
# chain: GSHMRKIPKVGHTFFQKPESCPPVPGGSMKLDIGIINENQRVSMSRNIESRSTSPWNYTVTWDPNRYPSEVVQAQCRNLGCINAQGKEDISMNSVPIQQETLVVRRKHQGCSVSFQLEKVLVTVGCTCVTPVIHHVQ
# modifications: N-glycosylation at Asn 53 (mature numbering); about 3 kDa carbohydrate per dimer
# notes: The same protein was crystallized; also called IL-17F (PRO20110); immobilized IL-17F
# B2: IL-17E-Fc fusion protein (IL-17E immunoadhesin) (Fc fusion)
# chain: YSHWPSCCPSKGQDTSEELLRWSTVPVPPLEPARPNRHPESCRASEDGPLNSRAISPWRYELDRDLNRLPQDLYHARCLCPHCVSLQTGSHMDPRGNSELLYHNQTVFYRRPCHGEKGTHKGYCLERRLYRVSLACVCVRPRVMG
# notes: not shown: Fc region of human IgG1, fused in frame at the C-terminus
# B3: His epitope tagged IL-17E (E. coli, refolded) (ligand)
# chain: B2 chain
# notes: also called IL-17E 8xHis-tag fusion; not shown: 8xHis-tag fusion
# B4: recombinant IL-17E (baculovirus, Examples 33/34) (ligand)
# chain: GSHMYSHWPSCCPSKGQDTSEELLRWSTVPVPPLEPARPNRHPESCRASEDGPLNSRAISPWRYELDRDLNRLPQDLYHARCLCPHCVSLQTGSHMDPRGNSELLYHNQTVFYRRPCHGEKGTHKGYCLERRLYRVSLACVCVRPRVMG
# notes: also called IL-17E (PRO10272); soluble IL-17E
# Columns and labels:
# [1] = molecular target: recombinant IL-17E (baculovirus, Examples 33/34) (human) (UniProt Q9H293); test: SPR (BIAcore 1000), IL-17E immobilized on CM5 chip, IL-17RH1 ECD in solution, 1:1 model
# [2] = molecular target: T3, IL-17R extracellular domain (residues 1-288), baculovirus, Examples 33/34 (human, UniProt Q96F46 33-320); test: SPR (BIAcore), IL-17F immobilized, receptor ECD in solution
# T3 construct: range 1-288; also called IL-17R ECD
# [3] = molecular target: T1, IL-17RH1 (PRO5801) expressed on …; test: FACS on 293 cells co-transfected with GFP and IL-17RH1, ligand-Fc detected with PE anti-human Fc antibody, GFP-positive cells
# [4] = molecular target: T1, IL-17RH1 (PRO5801) expressed on …; test: flow cytometry competition against IL-17E immunoadhesin on IL-17RH1-transfected 293 cells
# [5] = molecular target: T2, IL-17RH1 (PRO5801) extracellular domain (residues 1-275), baculovirus, Examples 33/34 (human); test: SPR (BIAcore 1000), IL-17RH1 ECD immobilized on CM5 chip, IL-17E in solution, 1:1 model
# [6] = molecular target: T3, IL-17R extracellular domain (residues …); test: SPR (BIAcore)
molecule,measurement,setting,value
"IL-17RH1 (PRO5801) extracellular domain (residues 1-275), baculovirus, Examples 33/34 (from UniProt Q9NRM6 18-292) (receptor)",Kd,[1],1.1 nM
same,koff,[1],0.0007 s⁻¹
same,kon,[1],670000 M⁻¹ s⁻¹
B1,binding result,[2],no binding (tested: up to 1 µM)
B2,binding result,[3],binds
B3,binding result,[4],binds
B4,Kd,[5],1.4 nM
same,koff,[5],0.00062 s⁻¹
same,kon,[5],430000 M⁻¹ s⁻¹
same,binding result,[6],no binding
